Source: patent US20220193132A1

Assays:
[1] = molecular target: EGFRvIII, full length, overexpressed on glioblastoma cells (human) (UniProt P00533); assay: cell-based or functional assay
[2] = molecular target: wild type human EGFR, full length, overexpressed on U87MG cells (human) (UniProt P00533); assay: cell-based or functional assay
[3] = molecular target: recombinant human wild type EGFR protein (extracellular domain), denatured (human) (UniProt P00533); assay: ELISA Exp 2, purified mAb 1 ug/ml
[4] = molecular target: recombinant human EGFRvIII protein (extracellular domain), native (human) (UniProt P00533); assay: ELISA Exp 2, purified mAb 1 ug/ml
[5] = molecular target: EGFRvIII, full length, overexpressed on glioblastoma cells (human) (UniProt P00533); assay: flow cytometry dose-response on U87MG-EGFRvIII cells, apparent Kd
[6] = molecular target: recombinant human EGFRvIII protein (extracellular domain), denatured (human) (UniProt P00533); assay: ELISA Exp 2, purified mAb 1 ug/ml
[7] = molecular target: recombinant human wild type EGFR protein (extracellular domain), native (human) (UniProt P00533); assay: ELISA Exp 2, purified mAb 1 ug/ml
[8] = molecular target: wild type human EGFR, full length, overexpressed on U87MG cells (human) (UniProt P00533); assay: flow cytometry dose-response on U87MG-EGFRwt cells, apparent Kd
[9] = molecular target: recombinant human EGFRvIII protein (extracellular domain), denatured (human) (UniProt P00533); assay: ELISA Exp 1, mAb supernatant
[10] = molecular target: recombinant human wild type EGFR protein (extracellular domain), denatured (human) (UniProt P00533); assay: ELISA Exp 1, mAb supernatant
[11] = molecular target: recombinant human EGFRvIII protein (extracellular domain), native (human) (UniProt P00533); assay: ELISA Exp 1, mAb supernatant
[12] = molecular target: recombinant human wild type EGFR protein (extracellular domain), native (human) (UniProt P00533); assay: ELISA Exp 1, mAb supernatant

Row | % internalization (pHrodo surrogate assay, vs 225 mAb) [1] | ELISA absorbance 405 nm [3] | ELISA absorbance 405 nm [4] | Kd [5] | % internalization (pHrodo surrogate assay, vs 225 mAb) [2] | ELISA absorbance 405 nm [6] | ELISA absorbance 405 nm [7] | Kd [8] | ELISA absorbance 405 nm [9] | ELISA absorbance 405 nm [10] | ELISA absorbance 405 nm [11] | ELISA absorbance 405 nm [12] | Substance | % survival (DM1 secondary-conjugate ADC surrogate assay, vs mouse IgG) [1] | % survival (DM1 secondary-conjugate ADC surrogate assay, vs mouse IgG) [2]
1 | < 3% |  |  |  |  |  |  |  |  |  |  |  | Neg ctrl mIgG (antibody) |  | 
2 |  | 0 A405 | -0.001 A405 |  |  |  |  |  |  |  |  |  | Neg ctrl mouse mAb (antibody) | > 98% | > 98%
3 | 100% |  | 1.5 A405 | 2.2 nM | 101% | 0.004 A405 | 1.32 A405 | 2.2 nM | 0.001 A405 | -0.01 A405 | 1.08 A405 | 1.2 A405 | 225 mAb (ATCC HB-8508) (antibody) | 49% | 52%
